Experimental data published in the supplement of paper PMC7125110.
± gives the standard error. For part of these data: Variants at the floor of the assay were thinned out.

B1: glmS ribozyme (parent)
chain: AUAAAAGCGCCAGAACUACAGAAAUGUAGUUGACGAGGAGGAGGUUUAUCGAAUUUUCGGCGGAUGCCUCCAAA

What was measured:
Conditions in all cases: with glucosamine-6-phosphate
[1] = variants of: B1; experiment: kcat; higher = faster cleavage; RNA array
Procedure, shortened: (§1)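 Barcoded glmS ribozyme variants on sequenced MiSeq chips were transcribed in situ by E. coli RNA polymerase and tracked through a hybridised Cy3 probe at 37 °C. Glucosamine-6-phosphate (40 μM to 10 mM) in HEPES/KCl/Mg(OAc)2 buffer was flowed in, and tiles were imaged over ~14 h. Signals were normalised to baseline and to non-cleaving reference variants; per-tile medians were fit to one- or two-exponential decays to give kobs. kcat and KM came from weighted Michaelis–Menten fits across concentrations.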

[2] = variants of: B1; experiment: KM; higher = weaker cofactor use; RNA array
Procedure, shortened: as §1

[3] = variants of: B1; experiment: self-cleavage kobs at 40 uM GlcN6P; higher = faster cleavage; RNA array
Procedure, shortened: as §1

[4] = variants of: B1; experiment: self-cleavage kobs at 640 uM GlcN6P; higher = faster cleavage; RNA array
Procedure, shortened: as §1

[5] = variants of: B1; experiment: self-cleavage kobs at 10000 uM GlcN6P; higher = faster cleavage; RNA array
Procedure, shortened: as §1

[6] = variants of: B1; experiment: self-cleavage kobs at 160 uM GlcN6P; higher = faster cleavage; RNA array
Procedure, shortened: as §1

[7] = variants of: B1; experiment: self-cleavage kobs at 2500 uM GlcN6P; higher = faster cleavage; RNA array
Procedure, shortened: as §1

A12U A42G U56A C67U was tested, and the kcat [1] was 0.004 ± 0.00068 s⁻¹, the KM [2] was 0.794 ± 0.2 mM and the “self-cleavage kobs at 40 uM GlcN6P” value [3] was 0.000207 ± 5.3e-05 s⁻¹. The “self-cleavage kobs at 640 uM GlcN6P” value [4] was 0.00156 ± 0.00046 s⁻¹ and the “self-cleavage kobs at 10000 uM GlcN6P” value [5] was 0.00431 ± 0.0015 s⁻¹.

For A12U G44A, the kcat [1] was 0.00153 ± 0.00047 s⁻¹, the KM [2] was 2.2 ± 0.96 mM and the “self-cleavage kobs at 160 uM GlcN6P” value [6] was 8.78e-05 ± 1.3e-05 s⁻¹. The “self-cleavage kobs at 640 uM GlcN6P” value [4] was 0.000437 ± 5.9e-05 s⁻¹, the “self-cleavage kobs at 2500 uM GlcN6P” value [7] was 0.00103 ± 0.00013 s⁻¹ and the “self-cleavage kobs at 10000 uM GlcN6P” value [5] was 0.000973 ± 0.0002 s⁻¹.

C11U U65G C68U was tested, and the kcat [1] was 6.35e-05 ± 2.3e-05 s⁻¹, the “self-cleavage kobs at 2500 uM GlcN6P” value [7] was 0.000106 ± 3.6e-05 s⁻¹ and the “self-cleavage kobs at 10000 uM GlcN6P” value [5] was 5.53e-05 ± 1.2e-05 s⁻¹.

With A12C U56G the kcat [1] was 0.0146 ± 0.003 s⁻¹, the KM [2] was 3.36 ± 0.91 mM and the “self-cleavage kobs at 40 uM GlcN6P” value [3] was 0.000162 ± 2.5e-05 s⁻¹. For the same variant, the “self-cleavage kobs at 160 uM GlcN6P” value [6] was 0.000652 ± 0.00018 s⁻¹, the “self-cleavage kobs at 640 uM GlcN6P” value [4] was 0.00336 ± 0.00068 s⁻¹ and the “self-cleavage kobs at 2500 uM GlcN6P” value [7] was 0.0054 ± 0.0014 s⁻¹. The “self-cleavage kobs at 10000 uM GlcN6P” value [5] was 0.0111 ± 0.0018 s⁻¹.

In the case of G13A C67A, the kcat [1] is reported as 0.000273 ± 6.7e-05 s⁻¹, the KM [2] is reported as 4.49 ± 2.1 mM and the “self-cleavage kobs at 640 uM GlcN6P” value [4] is reported as 2.62e-05 ± 8.7e-06 s⁻¹. The “self-cleavage kobs at 2500 uM GlcN6P” value [7] was 0.000133 ± 2.4e-05 s⁻¹ and the “self-cleavage kobs at 10000 uM GlcN6P” value [5] was 0.000181 ± 2.5e-05 s⁻¹.

A12U A36U was tested, and the kcat [1] was 2.03e-05 ± 6.7e-07 s⁻¹ and the KM [2] was 2.08 ± 0.23 mM.

With A12G U30C the kcat [1] was 0.000109 ± 8.8e-06 s⁻¹, the KM [2] was 3.18 ± 0.8 mM and the “self-cleavage kobs at 640 uM GlcN6P” value [4] was 2.84e-05 ± 1.3e-05 s⁻¹. The “self-cleavage kobs at 2500 uM GlcN6P” value [7] was 4.54e-05 ± 7.7e-06 s⁻¹ and the “self-cleavage kobs at 10000 uM GlcN6P” value [5] was 8.29e-05 ± 5.8e-06 s⁻¹.

In the case of A12U A33U C67U, the kcat [1] is reported as 0.000242 ± 4.7e-05 s⁻¹, the KM [2] is reported as 6.52 ± 2.6 mM and the “self-cleavage kobs at 10000 uM GlcN6P” value [5] is reported as 0.000146 ± 2.9e-05 s⁻¹.

For A12G U69C, the kcat [1] was 0.000893 ± 0.00026 s⁻¹, the KM [2] was 3.9 ± 1.9 mM and the “self-cleavage kobs at 640 uM GlcN6P” value [4] was 0.000152 ± 2e-05 s⁻¹. For the same variant, the “self-cleavage kobs at 2500 uM GlcN6P” value [7] was 0.000243 ± 5.4e-05 s⁻¹ and the “self-cleavage kobs at 10000 uM GlcN6P” value [5] was 0.0007 ± 8.2e-05 s⁻¹.

With A12G U69A the kcat [1] was 0.000112 ± 2.3e-05 s⁻¹, the “self-cleavage kobs at 640 uM GlcN6P” value [4] was 4.87e-05 ± 2.1e-05 s⁻¹ and the “self-cleavage kobs at 2500 uM GlcN6P” value [7] was 0.000171 ± 5.2e-05 s⁻¹. The “self-cleavage kobs at 10000 uM GlcN6P” value [5] was 9.85e-05 ± 1.9e-05 s⁻¹.

For A12U C70U, the kcat [1] was 0.00743 ± 0.0034 s⁻¹, the “self-cleavage kobs at 40 uM GlcN6P” value [3] was 0.00232 ± 0.00023 s⁻¹ and the “self-cleavage kobs at 160 uM GlcN6P” value [6] was 0.0134 ± 0.0027 s⁻¹. The “self-cleavage kobs at 640 uM GlcN6P” value [4] was 0.0108 ± 0.0021 s⁻¹ and the “self-cleavage kobs at 2500 uM GlcN6P” value [7] was 0.0055 ± 0.0012 s⁻¹.

With A12U U57A the kcat [1] was 0.00082 ± 0.00011 s⁻¹, the KM [2] was 4.04 ± 0.88 mM and the “self-cleavage kobs at 160 uM GlcN6P” value [6] was 4.56e-05 ± 1.7e-05 s⁻¹. The “self-cleavage kobs at 640 uM GlcN6P” value [4] was 0.000113 ± 2e-05 s⁻¹, the “self-cleavage kobs at 2500 uM GlcN6P” value [7] was 0.000287 ± 5e-05 s⁻¹ and the “self-cleavage kobs at 10000 uM GlcN6P” value [5] was 0.000604 ± 8.4e-05 s⁻¹.

With A12G C16U C34G C67G the kcat [1] was 1.6e-05 ± 3.8e-06 s⁻¹.

For A12C C50U, the kcat [1] was 0.000203 ± 3.3e-05 s⁻¹, the KM [2] was 4.75 ± 1.1 mM and the “self-cleavage kobs at 2500 uM GlcN6P” value [7] was 7.01e-05 ± 1.5e-05 s⁻¹.

With A12U U65G the kcat [1] was 0.00705 ± 0.00071 s⁻¹, the KM [2] was 4.65 ± 0.73 mM and the “self-cleavage kobs at 40 uM GlcN6P” value [3] was 5.57e-05 ± 9.8e-06 s⁻¹. The “self-cleavage kobs at 160 uM GlcN6P” value [6] was 0.000303 ± 6.4e-05 s⁻¹, the “self-cleavage kobs at 640 uM GlcN6P” value [4] was 0.000829 ± 0.00018 s⁻¹ and the “self-cleavage kobs at 2500 uM GlcN6P” value [7] was 0.00239 ± 0.00046 s⁻¹. The “self-cleavage kobs at 10000 uM GlcN6P” value [5] was 0.00483 ± 0.00044 s⁻¹.

For A12U A48G, the kcat [1] was 0.000185 ± 3.6e-05 s⁻¹, the “self-cleavage kobs at 160 uM GlcN6P” value [6] was 2.8e-05 ± 1.2e-05 s⁻¹ and the “self-cleavage kobs at 640 uM GlcN6P” value [4] was 9.16e-05 ± 1.3e-05 s⁻¹. For the same variant, the “self-cleavage kobs at 2500 uM GlcN6P” value [7] was 0.000246 ± 3e-05 s⁻¹ and the “self-cleavage kobs at 10000 uM GlcN6P” value [5] was 0.000156 ± 1.5e-05 s⁻¹.

With A12G C58G the kcat [1] was 0.000117 ± 1.9e-05 s⁻¹, the “self-cleavage kobs at 2500 uM GlcN6P” value [7] was 7.99e-05 ± 1.2e-05 s⁻¹ and the “self-cleavage kobs at 10000 uM GlcN6P” value [5] was 9.48e-05 ± 9.8e-06 s⁻¹.
